# Measurements reported in IntAct's records for PubMed 21245303.
# B1: Segment polarity protein dishevelled homolog DVL-2 (Homo sapiens), O14641 (parent)
# chain: MAGSSTGGGGVGETKVIYHLDEEETPYLVKIPVPAERITLGDFKSVLQRPAGAKYFFKSMDQDFGVVKEEISDDNARLPCFNGRVVSWLVSSDNPQPEMAPPVHEPRAELAPPAPPLPPLPPERTSGIGDSRPPSFHPNVSSSHENLEPETETESVVSLRRERPRRRDSSEHGAGGHRTGGPSRLERHLAGYESSSTLMTSELESTSLGDSDEEDTMSRFSSSTEQSSASRLLKRHRRRRKQRPPRLERTSSFSSVTDSTMSLNIITVTLNMEKYNFLGISIVGQSNERGDGGIYIGSIMKGGAVAADGRIEPGDMLLQVNDMNFENMSNDDAVRVLRDIVHKPGPIVLTVAKCWDPSPQAYFTLPRNEPIQPIDPAAWVSHSAALTGTFPAYPGSSSMSTITSGSSLPDGCEGRGLSVHTDMASVTKAMAAPESGLEVRDRMWLKITIPNAFLGSDVVDWLYHHVEGFPERREARKYASGLLKAGLIRHTVNKITFSEQCYYVFGDLSGGCESYLVNLSLNDNDGSSGASDQDTLAPLPGATPWPLLPTFSYQYPAPHPYSPQPPPYHELSSYTYGGGSASSQHSEGSRSSGSTRSDGGAGRTGRPEERAPESKSGSGSESEPSSRGGSLRRGGEASGTSDGGPPPSRGSTGGAPNLRAHPGLHPYGPPPGMALPYNPMMVVMMPPPPPPVPPAVQPPGAPPVRDLGSVPPELTASRQSFHMAMGNPSEFFVDVM
# Variants of: B1
# Conditions: with axin1_human AXIN1, O15169
# axin1_human AXIN1, O15169, sequence (O15169 whole entry): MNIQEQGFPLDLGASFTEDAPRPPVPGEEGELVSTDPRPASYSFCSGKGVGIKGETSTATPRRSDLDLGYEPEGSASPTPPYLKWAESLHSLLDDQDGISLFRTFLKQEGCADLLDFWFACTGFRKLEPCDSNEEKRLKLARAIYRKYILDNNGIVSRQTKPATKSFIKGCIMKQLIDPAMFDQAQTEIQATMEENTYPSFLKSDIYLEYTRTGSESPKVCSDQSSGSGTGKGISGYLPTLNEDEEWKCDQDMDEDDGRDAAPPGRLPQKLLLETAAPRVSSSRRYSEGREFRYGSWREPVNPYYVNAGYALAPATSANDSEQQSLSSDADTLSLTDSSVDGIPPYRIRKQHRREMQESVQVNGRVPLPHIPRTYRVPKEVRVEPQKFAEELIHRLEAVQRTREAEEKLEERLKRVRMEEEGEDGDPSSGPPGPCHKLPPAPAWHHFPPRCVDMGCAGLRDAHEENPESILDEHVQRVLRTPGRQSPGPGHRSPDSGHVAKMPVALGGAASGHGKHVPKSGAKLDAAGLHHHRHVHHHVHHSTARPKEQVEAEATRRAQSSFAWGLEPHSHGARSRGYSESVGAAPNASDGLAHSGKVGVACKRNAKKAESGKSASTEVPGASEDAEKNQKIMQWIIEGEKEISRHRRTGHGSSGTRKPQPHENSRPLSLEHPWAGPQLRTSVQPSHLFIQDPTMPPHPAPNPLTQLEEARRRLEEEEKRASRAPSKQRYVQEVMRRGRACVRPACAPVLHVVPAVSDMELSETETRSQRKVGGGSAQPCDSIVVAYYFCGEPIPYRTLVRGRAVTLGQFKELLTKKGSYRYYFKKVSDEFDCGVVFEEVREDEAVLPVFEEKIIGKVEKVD
row,Variant,effect of a mutation on the interaction
1,Y27D,disrupting interaction strength
